Numbering of substitutions follows the chain as printed.
B1: C6HL3-10 (scFv)
scFv: QVQLLQSGAELKKPGESLKISCKGSGYSFTSYWIAWVRQMPGKGLEYMGLIYPGDSDTKYSPSFQGQVTISVDKSVSTAYLQWSSLKPSDSAVYFCARHDVGYCSSSNCAKWPEYFQHWGQGTLVTVSSGGGGSGGGGSGGGGSQSVLTQPPSVSAAPGQKVTISCSGSSSNIGNNYVSWYQQLPGTAPKLLIYGHTNRPAGVPDRFSGSKSGTSASLAISGFRSEDEADYYCAAWEDPWYGWVFGGGTKLTVLG
notes: label as printed (probably C6ML3-10)
B2: C6ML3-3 (scFv)
scFv: B1 scFv with A235T, E237D, D238Y, P239A, W240L, Y241S
B3: C6ML3-11 (scFv)
scFv: B1 scFv with E237D, D238Y, P239A, W240L, Y241W
B4: C6ML3-13 (scFv)
scFv: B1 scFv with E237D, D238A, P239T, W240L, Y241W
B5: C6ML3-12 (scFv)
scFv: B1 scFv with E237D, D238Y, P239S, W240R, Y241S
notes: also called CML-3-12
B6: C6ML3-7 (scFv)
scFv: B1 scFv with E237D, D238Y, P239A, W240V, Y241S
B7: C6ML3-5 (scFv)
scFv: B1 scFv with E237D, D238Y, P239S, W240L, Y241S
B8: C6ML3-2 (scFv)
scFv: B1 scFv with E237D, D238H, P239S, W240L, Y241S
B9: C6ML3-8 (scFv)
scFv: B1 scFv with E237D, D238H, P239L, W240R, Y241W
B10: C6ML3-6 (scFv)
scFv: B1 scFv with A235S, E237D, D238Y, P239S, W240L, Y241S
B11: C6ML3-1 (scFv)
scFv: B1 scFv with E237D, D238Y, P239S, W240L, Y241W
B12: C6ML3-4 (scFv)
scFv: B1 scFv with A235S, D238Y, P239S, W240L, Y241W
B13: C6ML3-28 (scFv)
scFv: B1 scFv with A235S, E237D, D238Y, P239A, W240L, Y241S
B14: C6ML3-24 (scFv)
scFv: B1 scFv with E237D, D238E, P239Q, W240I, Y241F
B15: C6ML3-26 (scFv)
scFv: B1 scFv with E237D, P239S, W240R, Y241S
B16: C6ML3-22 (scFv)
scFv: B1 scFv with E237D, D238A, P239S, W240L, Y241S
B17: C6ML3-20 (scFv)
scFv: B1 scFv with D238Q, P239S, W240L, Y241W
B18: C6ML3-25 (scFv)
scFv: B1 scFv with E237D, D238N, P239R, W240H, Y241S
B19: C6ML3-21 (scFv)
scFv: B1 scFv with E237D, D238Y, P239S, W240Q, Y241S

Target: T1, c-erbB-2 ECD with a Ser-Gly-His6 C-terminal fusion (UniProt P04626 23-652)
T1 construct: extracellular domain; Expressed from CHO cells, IMAC purified; coupled to a CM5 chip, coated on plates, or biotinylated with NHS-LC-biotin; also called c-erbB-2 extracellular domain; biotinylated c-erbB-2 ECD
Assay: SPR BIAcore

Row | Binder | Kd [nM] | koff [s⁻¹]
1 | B1 | 2.3 | 0.0014
2 | B2 | 4.3 | 0.002
3 | B3 | 3.6 | 0.0022
4 | B4 | 2.4 | 0.0021
5 | B5 | 1.6 | 0.00072
6 | B6 | 2.6 | 0.0017
7 | B7 | 3.2 | 
8 | B8 | 2.8 | 0.002
9 | B9 | 2.6 | 0.0017
10 | B10 | 3.2 | 0.0019
11 | B11 | 6.7 | 0.002
12 | B12 | 3.5 | 0.0014

Target: T1, c-erbB-2 ECD with a Ser-Gly-His6 …
Assay: SPR BIAcore
Remark: another data set of the same source

Row | Binder | Kd [nM] | koff [s⁻¹]
13 | B13 | 2.5 | 0.0017
14 | B14 | 12.4 | 0.0079
15 | B5 | 1.6 | 0.00072
16 | B15 | 8.3 | 0.005
17 | B6 | 2.6 | 0.0017
18 | B16 | 8.3 | 0.0036
19 | B17 | 3 | 0.0014
20 | B7 | 3.7 | 
21 | B18 | 7.4 | 0.0044
22 | B10 | 3.2 | 0.0019
23 | B19 | 4.5 | 0.0022

Source: US6512097
